Here are results for one molecule from patent publication US10653749B2, “Targeting GIV-GEF-GI signaling for treating diverse diseases” (The Regents of the University of California, priority 2015, dated 2020).

For the test, the system named is L×2 human hepatic stellate cells. Description: L×2 myofibroblast (hepatic stellate cell) activation by TGFβ, qPCR and immunoblot. In kind it is cell-based. The method, then:
For measurement of collagen and αSMA mRNA levels in L×2 HSCs we followed the protocols exactly as before (59). Briefly, total RNA was isolated using an RNeasy kit (QIAGEN) as per the manufacturer's protocol. First-strand cDNA was synthesized using SuperScript II reverse transcriptase (Invitrogen), followed by ribonuclease H treatment (Invitrogen) before performing quantitative realtime PCR. Reactions omitting reverse transcriptase were performed in each experiment as negative controls. Reactions were then run on a real-time PCR system (ABI StepOnePlus; Applied Biosystems). Gene expression was detected with SYBR green (Invitrogen), and relative gene expression was determined by normalizing to GAPDH using the ΔΔT method. The sequences of primers used in this work are identical to what were used previously (59).
For TAT-protein transduction, cells were incubated with 400-800 nM of the TAT-proteins for 30 min at 37° C. prior to three washes with PBS and addition of fresh growth media. For analysis of EGF signaling, subconfluent monolayers of HeLa cells were treated with TAT proteins for 30 min, washed with PBS, and subsequently stimulated with EGF (50 nM) at 4 h after TAT transduction. For scratch-wound assays, HeLa monolayers were treated with TAT proteins before and at 12 h after wounding. For cancer cell invasion assays, highly invasive MDA MB 231 breast cancer cells were plated in 6-well dishes, treated with TAT-peptides for 30 min and subsequently lifted and placed in transwell chamber in the presence of serum-free media. For L×2 myofibroblast activation assays, cells were first treated with TAT-proteins for 30 min, starved in serum-free media, and subsequently treated with 1.5 ng/ml TGF-β for 24 h. TAT-protein transduction was repeated every 8 h during the course of TGFβ stimulation (total 3 treatments). […] In each case, whole cell lysates prepared from cells in duplicate wells were analyzed for signaling pathways and TAT-protein uptake by immunoblotting.

B1: TAT-GIV-CT-FA: GEF-deficient F1685A mutant of the TAT-GIV-CT peptide, dominant-negative; SEQ ID NO: 3 (protein)
chain: MRGSHHHHHHGMASMTGGQQMGRDLYDDDDKDRWGSKLGYGRKKRRQRRRGGSTMSGYPYDVPDYAGSMGGSGHSGETLESRHHKIKTGSPGSEVVTLQQALEESNKLTSVQIKSSSQENLLDEVMKSLSVSSDFLGKDKPVSCGLARSVSGKTPGDFYDRRTTKPEFLRPGPRKTEDTYFISSAGKPTPGTQGKIKLVKESSLSRQSKDSNPYATLPRASSVISTAEGTTRRTSIHDFLTKDSRLPISVDSPPAAADSNTTAASNVDKVQESRNSKSRSREQQSS
Turning to B1, the “reduction of HSC activation (expression of α-SMA)” value (TGFβ 24 h, TAT every 8 h, qPCR) is approximately 30%. The “suppression of collagen production” value (TGFβ 24 h, TAT every 8 h, vs control and TAT-GIV-CT-WT, qPCR) was approximately 70%. For the same molecule, under “immunoblot”, the “TGFβ-SMAD cascade (phosphorylation of SMAD2/3)” value is “suppression”.
